Like-named read-outs stand apart in the source and are kept apart here.
Legend:
[1] = molecular target: mouse PD-L1 (ligand blocking test) (mouse, UniProt Q9EP73 19-238, limits assumed); assay: blocking of mouse PD-L1/PD-1 binding, PD-L1 5 ug/ml; competitor PD-1
[2] = molecular target: T1, human PD-L1 (ligand blocking test) (human, UniProt Q9NZQ7 19-238, limits assumed); assay: blocking of B7-1 binding to human PD-L1, PD-L1 1 ug/ml; competitor B7-1
[3] = molecular target: T2, mouse PD-L1 (Cat. #50010-M08H, Sino Biological) (mouse, UniProt Q9EP73 19-238); assay: SPR, Biacore X100, 1:1 Langmuir
T2 construct: Bought recombinant protein used in the Biacore test
Method: (§1) According to the method in the manual of human anti-capture kit (Cat. A BR-1008-39, GE), the human anti-capture antibody was covalently coupled to biosensor chip CM5 (Cat. #BR-1000-12, GE) so that a certain amount of human PD-L1 (Cat. #10084-H08H, Sino Biological) monkey PD-L1 (Cat. #90251-C08H, Sino Biological), mouse PD-L1 (Cat. #50010-M08H, Sino Biological) were affinity captured. The affinity of PD-L1 antibody reacting with PD-L1 was measured with Biacore X100, GE instrument.

[4] = molecular target: T3, human PD-L1 (Cat. #10084-H08H, Sino Biological) (human, UniProt Q9NZQ7 19-239); assay: SPR, Biacore X100, 1:1 Langmuir
T3 construct: Bought recombinant protein used in the Biacore test; also called hPDL1; hPD-L1
Method: as §1

[5] = molecular target: T4, monkey PD-L1 (Cat. #90251-C08H, Sino Biological) (monkey (cyno), UniProt G7PSE7 19-239); assay: SPR, Biacore X100, 1:1 Langmuir
T4 construct: Bought recombinant protein used in the Biacore test; also called Monkey (cyno) PD-L1; Cyno PDL1
Method: as §1

[6] = molecular target: T1, human PD-L1 (ligand blocking test); assay: blocking of human PD-L1/PD-1 binding, PD-L1 10 ug/ml; competitor PD-1
[7] = molecular target: T3, human PD-L1 (Cat. #10084-H08H, Sino …); assay: SPR, Biacore X100, 1:1 Langmuir; remark: listed apart in the source
Method: as §1

[8] = molecular target: T4, monkey PD-L1 (Cat. #90251-C08H, Sino …); assay: SPR, Biacore X100, 1:1 Langmuir; remark: listed apart in the source
Method: as §1

T1 sequence (Q9NZQ7 19-238 limits assumed): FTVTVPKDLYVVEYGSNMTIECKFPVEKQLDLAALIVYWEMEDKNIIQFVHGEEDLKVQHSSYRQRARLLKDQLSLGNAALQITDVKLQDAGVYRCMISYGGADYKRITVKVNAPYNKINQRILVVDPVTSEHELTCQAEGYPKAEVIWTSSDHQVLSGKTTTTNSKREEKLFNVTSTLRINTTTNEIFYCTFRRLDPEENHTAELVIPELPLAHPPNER
T2 sequence (Q9EP73 19-238 limits assumed, stated change not applied): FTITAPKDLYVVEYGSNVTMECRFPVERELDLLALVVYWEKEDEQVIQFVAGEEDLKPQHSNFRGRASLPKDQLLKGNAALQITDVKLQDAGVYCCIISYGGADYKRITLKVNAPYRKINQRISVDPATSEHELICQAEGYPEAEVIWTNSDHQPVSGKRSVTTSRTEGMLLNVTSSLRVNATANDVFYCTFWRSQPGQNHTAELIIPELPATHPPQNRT
T4 sequence (G7PSE7 entry or part of it C08H C08H): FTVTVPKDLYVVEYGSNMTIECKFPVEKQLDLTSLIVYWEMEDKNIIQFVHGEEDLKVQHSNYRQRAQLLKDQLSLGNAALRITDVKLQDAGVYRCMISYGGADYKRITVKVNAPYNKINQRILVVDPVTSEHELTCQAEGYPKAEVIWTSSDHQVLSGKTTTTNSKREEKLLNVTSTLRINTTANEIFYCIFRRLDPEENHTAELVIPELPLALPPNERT
T3 sequence (Q9NZQ7 19-239 limits assumed): as the sequence (G7PSE7 entry or part of it C08H C08H) above, with T33A, S34A, N62S, Q68R, R82Q, L173F, A185T, I192T, L215H counted along it
Chain of mouse PD-L1 (ligand blocking test) (Q9EP73 19-238 limits assumed): as the sequence (Q9EP73 19-238 limits assumed, stated change not applied) above

B1: H6L11 (antibody, human IgG1, kappa, V domains shown)
VH: QVQLQESGPGLVKPSQTLSLTCTVSGGSISNDYWTWIRQHPGKGLEYIGFISRAGSTYNTPSLKGRVTISRDTSKNQFSLKLSSVTAADTAVYYCARSGGWLAPFDYWGRGTLVTVSS
VL: DIVMTQSPDSLAVSLGERATINCKSSQSLFYHSNQKHSLAWYQQKPGQPPKLLIYGASTRESGVPDRFSGSGSGTDFTLTISSLQAEDVAVYYCQQYYGYPYTFGGGTKVEIKR
notes: also called 9-2 H6 and 9-2 L11
[1]
  IC50: 1.23 ng/mL
[2]
  IC50: 1.69 ng/mL
[3]
  Kd: 18.1 nM
  koff: 0.0119 s⁻¹
  kon: 655000 M⁻¹ s⁻¹
[4]
  Kd: 0.227 nM
  koff: 0.000113 s⁻¹
  kon: 495000 M⁻¹ s⁻¹
[5]
  Kd: 0.318 nM
  koff: 0.000151 s⁻¹
  kon: 474000 M⁻¹ s⁻¹
[6]
  IC50: 0.29 ng/mL

B2: H7L11 (antibody, human IgG1, kappa, V domains shown)
VH: QVQLQESGPGLVKPSQTLSLTCTVSGGSISNDYWTWIRQHPGKGLEYIGMISVAGSTYHTPSLKGRVTISRDTSKNQFSLKLSSVTAADTAVYYCARSGGWLAPFDYWGRGTLVTVSS
VL: DIVMTQSPDSLAVSLGERATINCKSSQSLFYHSNQKHSLAWYQQKPGQPPKLLIYGASTRESGVPDRFSGSGSGTDFTLTISSLQAEDVAVYYCQQYYGYPYTFGGGTKVEIKR
notes: also called 9-2 H7 and 9-2 L11
[3]
  Kd: 135 nM
  koff: 0.0182 s⁻¹
  kon: 135000 M⁻¹ s⁻¹
[4]
  Kd: 1.39 nM
  koff: 0.000389 s⁻¹
  kon: 281000 M⁻¹ s⁻¹

B3: H21L67 (antibody, human IgG1, kappa, V domains shown)
VH: QVQLVQSGAEVKKPGASVKVSCKASGYTFTDKWMMWVRQAPGQGLEWMGRITPSSGFAMYNEKFKNRVTMTRDTSTSTVYMELSSLRSEDTAVYYCARGGSSYDYFDYWGQGTTVTVSS
VL: DIVLTQSPASLAVSPGQRATITCRASESVSIHGTHLMHWYQQKPGQPPKLLIYVASNVESGVPARFSGSGSGTDFTLTINPVEAEDTANYYCQQSFEDPLTFGQGTKLEIKR
notes: also called 24D5 H21 and 24D5 L67
[7]
  Kd: 0.0522 nM
  koff: 0.00012 s⁻¹
  kon: 2.3e+06 M⁻¹ s⁻¹
[8]
  Kd: 0.0528 nM
  koff: 0.000124 s⁻¹
  kon: 2.35e+06 M⁻¹ s⁻¹

B4: H12L64 (antibody, human IgG1, kappa, V domains shown)
VH: QVQLVQSGAEVKKPGASVKVSCKASGYTFTSYWMHWVRQAPGQGLEWMGRITPSSGFAMYNEKFKNRVTMTRDTSTSTVYMELSSLRSEDTAVYYCARGGSSYDYFDYWGQGTTVTVSS
VL: DIVLTQSPASLAVSPGQRATITCRASESVSIHGTHLMHWYQQKPGQPPKLLIYVASYAASGVPARFSGSGSGTDFTLTINPVEAEDTANYYCQQSFEDPLTFGQGTKLEIKR
notes: from the HRP00052 mutant library; also called 24D5 H12 and 24D5 L64
[2]
  IC50: 0.826 ng/mL
[4]
  Kd: 0.0326 nM
  koff: 7.1e-05 s⁻¹
  kon: 2.18e+06 M⁻¹ s⁻¹
[5]
  Kd: 0.0458 nM
  koff: 8.38e-05 s⁻¹
  kon: 1.83e+06 M⁻¹ s⁻¹
[6]
  IC50: 0.215 ng/mL

B5: H21L66 (antibody, human IgG1, kappa, V domains shown)
VH: QVQLVQSGAEVKKPGASVKVSCKASGYTFTDKWMMWVRQAPGQGLEWMGRITPSSGFAMYNEKFKNRVTMTRDTSTSTVYMELSSLRSEDTAVYYCARGGSSYDYFDYWGQGTTVTVSS
VL: DIVLTQSPASLAVSPGQRATITCRASESVSIHGTHLMHWYQQKPGQPPKLLIYVASNVFSGVPARFSGSGSGTDFTLTINPVEAEDTANYYCQQSFEDPLTFGQGTKLEIKR
notes: also called 24D5 H21 and 24D5 L66
[7]
  Kd: 0.0533 nM
  koff: 0.000104 s⁻¹
  kon: 1.95e+06 M⁻¹ s⁻¹
[8]
  Kd: 0.0563 nM
  koff: 0.000122 s⁻¹
  kon: 2.17e+06 M⁻¹ s⁻¹

B6: H21L69 (antibody, human IgG1, kappa, V domains shown)
VH: QVQLVQSGAEVKKPGASVKVSCKASGYTFTDKWMMWVRQAPGQGLEWMGRITPSSGFAMYNEKFKNRVTMTRDTSTSTVYMELSSLRSEDTAVYYCARGGSSYDYFDYWGQGTTVTVSS
VL: DIVLTQSPASLAVSPGQRATITCRASESVSIHGTHLMHWYQQKPGQPPKLLIYVASNVYSGVPARFSGSGSGTDFTLTINPVEAEDTANYYCQQSFEDPLTFGQGTKLEIKR
notes: also called 24D5 H21 and 24D5 L69
[7]
  Kd: 0.0563 nM
  koff: 0.000129 s⁻¹
  kon: 2.29e+06 M⁻¹ s⁻¹
[8]
  Kd: 0.0526 nM
  koff: 0.000119 s⁻¹
  kon: 2.27e+06 M⁻¹ s⁻¹

B7: H18L61 (antibody, human IgG1, kappa, V domains shown)
VH: QVQLVQSGAEVKKPGASVKVSCKASGYTFTSYWMHWVRQAPGQGLEWMGRISPSSGMAVYNEKFKNRVTMTRDTSTSTVYMELSSLRSEDTAVYYCARGGSSYDYFDYWGQGTTVTVSS
VL: DIVLTQSPASLAVSPGQRATITCRASESVSIHGTHLMHWYQQKPGQPPKLLIYAASNLESGVPARFSGSGSGTDFTLTINPVEAEDTANYYCQQSFEDPLTFGQGTKLEIKR
notes: also called 24D5 H18 and 24D5 L61
[2]
  IC50: 1.38 ng/mL
[4]
  Kd: 0.033 nM
  koff: 5.63e-05 s⁻¹
  kon: 1.71e+06 M⁻¹ s⁻¹
[5]
  Kd: 0.048 nM
  koff: 7.68e-05 s⁻¹
  kon: 1.6e+06 M⁻¹ s⁻¹
[6]
  IC50: 0.228 ng/mL

B8: HRP00052-IgG1 (antibody)
heavy: not shown
light: DIVLTQSPASLAVSPGQRATITCRASESVSIHGTHLMHWYQQKPGQPPKLLIYAASNLESGVPARFSGSGSGTDFTLTINPVEAEDTANYYCQQSFEDPLTFGQGTKLEIKRTVAAPSVFIFPPSDEQLKSGTASVVCLLNNFYPREAKVQWKVDNALQSGNSQESVTEQDSKDSTYSLSSTLTLSKADYEKHKVYACEVTHQGLSSPVTKSFNRGEC
[2]
  IC50: 1.65 ng/mL
[6]
  IC50: 0.338 ng/mL

B9: H12L61 (antibody, human IgG1, kappa, V domains shown)
VH: QVQLVQSGAEVKKPGASVKVSCKASGYTFTSYWMHWVRQAPGQGLEWMGRITPSSGFAMYNEKFKNRVTMTRDTSTSTVYMELSSLRSEDTAVYYCARGGSSYDYFDYWGQGTTVTVSS
VL: DIVLTQSPASLAVSPGQRATITCRASESVSIHGTHLMHWYQQKPGQPPKLLIYAASNLESGVPARFSGSGSGTDFTLTINPVEAEDTANYYCQQSFEDPLTFGQGTKLEIKR
notes: also called 24D5 H12 and 24D5 L61
[4]
  Kd: 0.0326 nM
  koff: 7.1e-05 s⁻¹
  kon: 2.18e+06 M⁻¹ s⁻¹

B10: H13L61 (antibody, human IgG1, kappa)
heavy: not shown
light: DIVLTQSPASLAVSPGQRATITCRASESVSIHGTHLMHWYQQKPGQPPKLLIYAASNLESGVPARFSGSGSGTDFTLTINPVEAEDTANYYCQQSFEDPLTFGQGTKLEIKRTVAAPSVFIFPPSDEQLKSGTASVVCLLNNFYPREAKVQWKVDNALQSGNSQESVTEQDSKDSTYSLSSTLTLSKADYEKHKVYACEVTHQGLSSPVTKSFNRGEC
notes: also called 24D5 H13 and 24D5 L61
[4]
  Kd: 0.0261 nM
  koff: 6.66e-05 s⁻¹
  kon: 2.55e+06 M⁻¹ s⁻¹

B11: H14L61 (antibody, human IgG1, kappa, V domains shown)
VH: QVQLVQSGAEVKKPGASVKVSCKASGYTFTSYWMHWVRQAPGQGLEWMGRIHPSLGLPLYNEKFKNRVTMTRDTSTSTVYMELSSLRSEDTAVYYCARGGSSYDYFDYWGQGTTVTVSS
VL: DIVLTQSPASLAVSPGQRATITCRASESVSIHGTHLMHWYQQKPGQPPKLLIYAASNLESGVPARFSGSGSGTDFTLTINPVEAEDTANYYCQQSFEDPLTFGQGTKLEIKR
notes: also called 24D5 H14 and 24D5 L61
[4]
  Kd: 0.038 nM
  koff: 9.1e-05 s⁻¹
  kon: 2.4e+06 M⁻¹ s⁻¹

B12: H15L61 (antibody, human IgG1, kappa, V domains shown)
VH: QVQLVQSGAEVKKPGASVKVSCKANGYTFTDKWMMWVRQAPGQGLEWMGRITPSSGFAMYNEKFKNRVTMTRDTSTSTVYMELSSLRSEDTAVYYCARGGSSYDYFDYWGQGTTVTVSS
VL: DIVLTQSPASLAVSPGQRATITCRASESVSIHGTHLMHWYQQKPGQPPKLLIYAASNLESGVPARFSGSGSGTDFTLTINPVEAEDTANYYCQQSFEDPLTFGQGTKLEIKR
notes: also called 24D5 H15 and 24D5 L61
[4]
  Kd: 0.0325 nM
  koff: 7.88e-05 s⁻¹
  kon: 2.43e+06 M⁻¹ s⁻¹

B13: H16L61 (antibody, human IgG1, kappa)
heavy: not shown
light: DIVLTQSPASLAVSPGQRATITCRASESVSIHGTHLMHWYQQKPGQPPKLLIYAASNLESGVPARFSGSGSGTDFTLTINPVEAEDTANYYCQQSFEDPLTFGQGTKLEIKRTVAAPSVFIFPPSDEQLKSGTASVVCLLNNFYPREAKVQWKVDNALQSGNSQESVTEQDSKDSTYSLSSTLTLSKADYEKHKVYACEVTHQGLSSPVTKSFNRGEC
notes: also called 24D5 H16 and 24D5 L61
[4]
  Kd: 0.0254 nM
  koff: 6.43e-05 s⁻¹
  kon: 2.53e+06 M⁻¹ s⁻¹

B14: H17L61 (antibody, human IgG1, kappa, V domains shown)
VH: QVQLVQSGAEVKKPGASVKVSCKASGYTFTSYWMHWVRQAPGQGLEWMGRIGPNLGWAMYNEKYKNRVTMTRDTSTSTVYMELSSLGSEDTAVYYCARGGSSYDYFDYWGQGTTVTVSS
VL: DIVLTQSPASLAVSPGQRATITCRASESVSIHGTHLMHWYQQKPGQPPKLLIYAASNLESGVPARFSGSGSGTDFTLTINPVEAEDTANYYCQQSFEDPLTFGQGTKLEIKR
notes: also called 24D5 H17 and 24D5 L61
[4]
  Kd: 0.0393 nM
  koff: 9.53e-05 s⁻¹
  kon: 2.43e+06 M⁻¹ s⁻¹

B15: H19L61 (antibody, human IgG1, kappa, V domains shown)
VH: QVQLVQSGAEVKKPGASVKVSCKASGYTFTSYWMHWVRQAPGQGLEWMGRISPGGGFTLYNEKFKNRVTMTRDTSTSTVYMELSSLRSEDTAVYYCARGGSSYDYFDYWGQGTTVTVSS
VL: DIVLTQSPASLAVSPGQRATITCRASESVSIHGTHLMHWYQQKPGQPPKLLIYAASNLESGVPARFSGSGSGTDFTLTINPVEAEDTANYYCQQSFEDPLTFGQGTKLEIKR
notes: also called 24D5 H19 and 24D5 L61
[4]
  Kd: 0.0327 nM
  koff: 7.65e-05 s⁻¹
  kon: 2.34e+06 M⁻¹ s⁻¹

Reference: patent publication US20200339692A1 (JIANGSU HENGRUI MEDICINE, published 2020)
